# Tests used:
# Cys149 = details: cited from earlier work
# Cys149 (position 149, …) = test: chemical modification; details: 25 °C; not stated (10 mM buffers); 10 mM sodium acetate (pH 4-5), 10 mM MES (pH 5.5-6.5), 10 mM Tris/HCl (pH 7-9); Native reduced enzyme at 2.8 uM, with no substrate or NAD+ added. Cofactor occupancy is not stated.
# [1] = target: Cys149 (UniProt position 150, …); details: cited from earlier work
protein,measurement,setting,value
Glyceraldehyde-3-phosphate dehydrogenase (GAPDH) (Geobacillus stearothermophilus (Bacillus stearothermophilus)) (protein) AVKVGINGFGRIGRNVFRAALKNPDIEVVAVNDLTDANTLAHLLKYDSVHGRLDAEVSVNGNNLVVNGKEIIVKAERDPENLAWGEIGVDIVVESTGRFTKREDAAKHLEAGAKKVIISAPAKNEDITIVMGVNQDKYDPKAHHVISNASCTTNCLAPFAKVLHEQFGIVRGMMTTVHSYTNDQRILDLPHKDLRRARAAAESIIPTTTGAAKAVALVLPELKGKLNGMAMRVPTPNVSVVDLVAELEKEVTVEEVNAALKAAAEGELKGILAYSEEPLVSRDYNGSTVSSTIDALSTMVIDGKMVKVVSWYDNETGYSHRVVDLAAYIASKGL,pKa,Cys149,5.92
Glyceraldehyde-3-phosphate dehydrogenase GapA (CbGAPDH) (Citrobacter sp. S-77) (protein) TIKVGINGFGRIGRIVFRAAQERSDIEIVAINDLLDADYMAYMLKYDSTHGRFNGSVEVKDGHLIVNGKKIRVTAERDPANLKWDEVGVDVVAEATGLFLTDETARKHITAGAKKVVLTGPSKDNTPMFVKGANFDKYEGQDIVSNASCTTNCLAPLAKVINDNFGIIEGLMTTVHATTATQKTVDGPSHKDWRGGRGAAQNIIPSSTGAAKAVGKVLPELNGKLTGMAFRVPTPNVSVVDLTVRLEKAASYEEIKKAIKAASEGPMKGVLGYTEDDVVSTDFNGEVCTSVFDAKAGIALNDNFVKLVSWYDNETGYSNKVLDLIAHISK,pKa,"Cys149 (position 149, …)",5.82 ± 0.05
Glyceraldehyde-3-phosphate dehydrogenase A (GAPDH) (Escherichia coli) (protein) TIKVGINGFGRIGRIVFRAAQKRSDIEIVAINDLLDADYMAYMLKYDSTHGRFDGTVEVKDGHLIVNGKKIRVTAERDPANLKWDEVGVDVVAEATGLFLTDETARKHITAGAKKVVMTGPSKDNTPMFVKGANFDKYAGQDIVSNASCTTNCLAPLAKVINDNFGIIEGLMTTVHATTATQKTVDGPSHKDWRGGRGASQNIIPSSTGAAKAVGKVLPELNGKLTGMAFRVPTPNVSVVDLTVRLEKAATYEQIKAAVKAAAEGEMKGVLGYTEDDVVSTDFNGEVCTSVFDAKAGIALNDNFVKLVSWYDNETGYSNKVLDLIAHISK,pKa,[1],5.70

# — publication PMC6325607
